For orientation: kcat means the number of substrate molecules converted per active site and unit of time at saturation. A word on the KM: it is the concentration of substrate that gives half-maximal velocity.

± gives the standard error. For some of these results: This sample holds only a part of the variants without activity. Bounds are passed on as bounds.

To fix the notation:
B1: glmS ribozyme (parent)
chain: AUAAAAGCGCCAGAACUACAGAAAUGUAGUUGACGAGGAGGAGGUUUAUCGAAUUUUCGGCGGAUGCCUCCAAA

Conditions in all cases: with glucosamine-6-phosphate
The variants in series [1] derive from B1. Put plainly: kcat; higher = faster cleavage; RNA array. Put shortly:
(§1)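 Tracking of barcoded ribozyme variants used a hybridised Cy3 probe at 37 °C, after in situ transcription by E. coli RNA polymerase on sequenced MiSeq chips. The flowed solution held 40 μM to 10 mM glucosamine-6-phosphate in HEPES/KCl/Mg(OAc)2 buffer, and imaging ran over ~14 h. kobs was taken from exponential decay fits of normalised per-tile medians, and kcat and KM from weighted Michaelis–Menten fits.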

In series [2] the parent is B1. Put plainly: self-cleavage kobs at 40 uM GlcN6P; higher = faster cleavage; RNA array. In outline: as §1
Variants of B1 are the subject of series [3]. Kind of series: self-cleavage kobs at 160 uM GlcN6P; higher = faster cleavage; RNA array. Put shortly: as §1
Variants of B1 are the subject of series [4]. Put plainly: self-cleavage kobs at 640 uM GlcN6P; higher = faster cleavage; RNA array. Put shortly:
as §1

Series [5] covers variants of B1. Kind of series: self-cleavage kobs at 2500 uM GlcN6P; higher = faster cleavage; RNA array. Put shortly:
as §1

The variants in series [6] derive from B1. Kind of series: self-cleavage kobs at 10000 uM GlcN6P; higher = faster cleavage; RNA array. In outline:
as §1

Series [7] covers variants of B1. Put plainly: KM; higher = weaker cofactor use; RNA array. In outline: as §1

As to AUAAAAGCGCCAGCACUACAGAAAUGUAGUUGACGAGGAGGAGGUUUAUCGAGUUUUCGGCGGAUGCCUCCAAA [A14C A53G], the kcat with glucosamine-6-phosphate [1] was 0.00897 ± 0.0044 s⁻¹. In addition, the “self-cleavage kobs at 40 uM GlcN6P” value with glucosamine-6-phosphate [2] amounted to 0.00012 ± 1.8e-05 s⁻¹. In addition, the “self-cleavage kobs at 160 uM GlcN6P” value with glucosamine-6-phosphate [3] came to 0.000245 ± 3.7e-05 s⁻¹. For the same variant, in the series with glucosamine-6-phosphate [4], the “self-cleavage kobs at 640 uM GlcN6P” value came out at 0.00116 ± 0.00015 s⁻¹. Besides, the “self-cleavage kobs at 2500 uM GlcN6P” value with glucosamine-6-phosphate [5] was found to be 0.0024 ± 0.00037 s⁻¹. Besides, in the series with glucosamine-6-phosphate [6], the “self-cleavage kobs at 10000 uM GlcN6P” value is 0.00721 ± 0.001 s⁻¹.
Turning to AUAAAAGCGCCAGAACUACAGAAAUGUAGUUGACGAGGAGGAGGUUAAUAGAAUUUUCGGCGGAUGCCUCCAAA [U47A C50A], the kcat with glucosamine-6-phosphate [1] was determined as 4.12e-05 ± 2e-06 s⁻¹. Further, the KM in the series with glucosamine-6-phosphate [7] came to 5.84 ± 0.72 mM. In the series with glucosamine-6-phosphate [6], the “self-cleavage kobs at 10000 uM GlcN6P” value amounted to 2.6e-05 ± 9.8e-06 s⁻¹.
Turning to AUAAAAGCGCCAGAACUACAGAAAUGUAGUUGACGAGGAGGAGGUUUAUCGAAUUUUCGGCGGAUGCCAACAAA [U69A C70A], in the series with glucosamine-6-phosphate [1], the kcat worked out at 3.8e-05 ± 4.6e-06 s⁻¹. The “self-cleavage kobs at 2500 uM GlcN6P” value with glucosamine-6-phosphate [5] stood at 4.37e-05 ± 1.1e-05 s⁻¹. For the same variant, the “self-cleavage kobs at 10000 uM GlcN6P” value with glucosamine-6-phosphate [6] turned out to be 3.27e-05 ± 9.4e-06 s⁻¹.
For AUAAAAGCGCCAGAACUACAGAAAUGUAGUUGACGAGGAGAAGGUUUAUCGAAUUGUCGGCGGAUGCCUCCAAA [G41A U56G], the kcat in the series with glucosamine-6-phosphate [1] was 0.000193 ± 1.8e-05 s⁻¹. Further, the Michaelis-Menten constant (KM) with glucosamine-6-phosphate [7] stood at 1.74 ± 0.31 mM. The “self-cleavage kobs at 640 uM GlcN6P” value with glucosamine-6-phosphate [4] amounted to 5.1e-05 ± 1.4e-05 s⁻¹. Also, in the series with glucosamine-6-phosphate [5], the “self-cleavage kobs at 2500 uM GlcN6P” value amounted to 0.000109 ± 3.5e-05 s⁻¹. The “self-cleavage kobs at 10000 uM GlcN6P” value with glucosamine-6-phosphate [6] turned out to be 0.000169 ± 4.7e-05 s⁻¹.
As for AUAAAAGCGCCAGAACUACAGAAAUGUAGUGGACGAGGAGGAGGUUUAUCGAAUUGUCGGCGGAUGUCUCCAAA [U31G U56G C67U], in the series with glucosamine-6-phosphate [1], the kcat was determined as 0.00109 ± 0.00017 s⁻¹. Moreover, in the series with glucosamine-6-phosphate [7], the KM is 2.91 ± 0.8 mM. In addition, the “self-cleavage kobs at 160 uM GlcN6P” value in the series with glucosamine-6-phosphate [3] was 8.73e-05 ± 3.2e-05 s⁻¹. Further, the “self-cleavage kobs at 640 uM GlcN6P” value with glucosamine-6-phosphate [4] came to 0.000176 ± 5.1e-05 s⁻¹. Further, the “self-cleavage kobs at 2500 uM GlcN6P” value in the series with glucosamine-6-phosphate [5] is 0.000493 ± 0.00014 s⁻¹. Further, in the series with glucosamine-6-phosphate [6], the “self-cleavage kobs at 10000 uM GlcN6P” value stood at 0.00086 ± 0.00015 s⁻¹.
As to AUAAAAGCGCCCGAAUUACAGAAAUGUAGUUGACGAGGAGGAGGUUUAUCGAAUUUUCGGCGGAUGCCUCCAAA [A12C C16U], the kcat with glucosamine-6-phosphate [1] was 0.0121 ± 0.005 s⁻¹. Moreover, the “self-cleavage kobs at 40 uM GlcN6P” value with glucosamine-6-phosphate [2] worked out at 0.000543 ± 4.7e-05 s⁻¹. The “self-cleavage kobs at 160 uM GlcN6P” value with glucosamine-6-phosphate [3] amounted to 0.001 ± 0.00018 s⁻¹. In addition, the “self-cleavage kobs at 640 uM GlcN6P” value with glucosamine-6-phosphate [4] stood at 0.00435 ± 0.00065 s⁻¹. For the same variant, in the series with glucosamine-6-phosphate [5], the “self-cleavage kobs at 2500 uM GlcN6P” value was 0.0065 ± 0.0011 s⁻¹. Also, in the series with glucosamine-6-phosphate [6], the “self-cleavage kobs at 10000 uM GlcN6P” value was determined as 0.016 ± 0.0022 s⁻¹.
As to AUAAAAGCGCCAGAACUACAGAAAUGUAUUUGACGAGGAGGAGGUUUAUAGAAUUUUCGGCGGAUGCCUCCAAA [G29U C50A], the turnover number (kcat) with glucosamine-6-phosphate [1] was under 1e-05 s⁻¹. For the same variant, in the series with glucosamine-6-phosphate [2], the “self-cleavage kobs at 40 uM GlcN6P” value is under 1e-05 s⁻¹.
In the case of AUAAAAGCGCUAGUAGUACAGAAAUGUAGUUGACGAGGAGGAGGUUUAUCGAAUUUUCGGCGGAUGCCUCCAAA [C11U A14U C16G], the kcat with glucosamine-6-phosphate [1] turned out to be 0.000375 ± 7.9e-05 s⁻¹. Besides, the “self-cleavage kobs at 2500 uM GlcN6P” value in the series with glucosamine-6-phosphate [5] is 6.42e-05 ± 2.5e-05 s⁻¹. For the same variant, the “self-cleavage kobs at 10000 uM GlcN6P” value with glucosamine-6-phosphate [6] was 0.000164 ± 3.4e-05 s⁻¹.
Turning to AUAAAAGCGCCCGAACUACAGAAAUGUAGUUGACGAGGAGGAGGUUUAUUGAAUUUUCGGCGGAUGCCUCCAAA [A12C C50U], the kcat with glucosamine-6-phosphate [1] worked out at 0.000203 ± 3.3e-05 s⁻¹. Also, in the series with glucosamine-6-phosphate [7], the KM is 4.75 ± 1.1 mM. The “self-cleavage kobs at 2500 uM GlcN6P” value in the series with glucosamine-6-phosphate [5] was found to be 7.01e-05 ± 1.5e-05 s⁻¹.
